Laboratory results: US20020147326A1, “Hexameric fusion proteins and uses therefor” (SmithKline Beecham Corporation, priority 1996, published 2002)

Columns and labels:
CD28-Ig [1] = target: T1, CD28-Ig (Homo sapiens, UniProt P10747); set-up: Ig fusion partner; conditions: read-out: approximate Kd of soluble CD80-Ig binding to immobilized CD28-Ig; Linsley et al. 1991; cited from earlier work
CD28-Ig [2] = target: T1, CD28-Ig; test: ELISA binding of biotinylated fusion proteins to immobilized CD28-Ig; set-up: native leader and extracellular domain peptide of CD28 and CD80 were grafted onto a human IgG1 heavy chain Fc region; human IgG1 Fc (hinge/CH2/CH3); made in house; host or cells: CHO cells; conditions: for binding to immobilized CD28-Ig: biotinylated protein, ELISA
Experimental: For this assay format, the CD80-Igαtp protein was biotinylated for simplicity of assay and for ease of detection since the CD28 protein absorbed to the plate wells was also a human Ig fusion construct. Biotinylation was carried out essentially as described in Avidin-Biotin Chemistry: A handbook, M. D. Savage et al., Pierce Chemical Company (1992). […] All steps of the assay after coating were carried out at room temperature.
The wells of 96 well microtiter plates (Immunlon 4, Dynatech Laboratories) were coated with CD28-Ig (1, 2, or4 μg/ml) in 100 μl/well of 0.1 M sodium bicarbonate, pH 9.4 and incubated overnite @4° C. The wells were washed with PBS (phosphate buffered saline) and blocked with 0.5% gelatin in PBS for 1 hour. Following an additional PBS wash, biotinylated CD80-Igαtp was serially diluted in PBS containing 1 mg/ml BSA, 0.05% Tween directly in the wells in a final volume of 0.1 ml and incubated for 1 hour. The wells were washed with PBS and bound CD80-Igαtp protein was measured by the addition of 0.1 ml of strepavidin-HRP (streptavidin conjugated with horseradish peroxidase (Southern Biotech)) at a 1:2000 dilution for 1 hour, followed by washing and color development with 100 μl ABTS substrate (Kierkegaard and Perry Laboratories Inc., Maryland) and measurement of absorbance at 405 nm. In some cases the color reactions were arrested by addition of 100 μl of 1% SDS prior to measurement of absorbance. In this figure, “CD28-Fc”, “CTLA4-Fc”, and “B7-FcA” denote CD28-Ig, CTLA4-Ig, and CD80-Igαtp, respectively.

CD28-Ig [3] = target: T1, CD28-Ig; test: Isothermal titration calorimetry, binding to CD28-Ig in solution; set-up: native leader and extracellular domain peptide of CD28 and CD80 were grafted onto a human IgG1 heavy chain Fc region; human IgG1 Fc (hinge/CH2/CH3); made in house; host or cells: CHO cells
Text: (§1) The solution binding properties of the hexameric and standard Ig fusion proteins of CD80 and CD86 were compared using isothermal titration calorimetry, essentially as described previously for other proteins [K. Johanson et. al., J. Biol. Chem, 270: 9459-9471 (1995), and references therein].
This lower affinity for CD28 than for CTLA4 is in agreement with other reports [P. S. Linsley et. al., Immunity 1: 793-801 (1994)].

CTLA4-Ig = target: T2, CTLA4-Ig (Homo sapiens, UniProt P16410, F162A); test: Isothermal titration calorimetry, binding to CTLA4-Ig in solution
T2 construct: junction spanning the end of the CTLA4 extracellular domain and the hinge region; human IgG1 Fc (hinge/CH2/CH3); made in house; host or cells: CHO cells (by 'in a similar manner' to CD28-Ig)
Text: as §1
The error in Kd's is about a factor of 2 and the error in molar binding ratio's is 10-20%. […] The molecular masses of CD80-Igαtp and CD86-Igαtp were estimated as 6× the mass of the respective Ig proteins plus 40,000 Da. contributed by the twelve tailpiece segments.

T2 sequence (P16410 38-162 F162A): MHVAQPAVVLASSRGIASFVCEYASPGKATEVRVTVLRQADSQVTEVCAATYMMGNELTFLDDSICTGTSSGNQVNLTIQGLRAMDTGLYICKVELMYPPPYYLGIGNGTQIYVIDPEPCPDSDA

Row | binding to immobilized CD28-Ig (CD28-Ig [2]) | interaction with CD28-Ig in solution by calorimetry (CD28-Ig [3]) | saturation of OD405 (CD28-Ig [2]; biotinylated CD80-Igαtp at 50 μg/ml) | ratio of Igαtp to Ig titration equivalence points (molar ratio) (CTLA4-Ig) | Substance | Kd (CD28-Ig [1]) [nM]
1 | concentration dependent binding | did not show detectable binding | about 50% | about 6 | CD80-Igαtp: CD80 leader and extracellular domain linked to human IgG1 hinge/CH2/CH3 and terminating in human IgA1 tailpiece (αtp) | –
2 | good binding | did not show detectable binding | – | – | CD86-Igαtp: CD86 leader and extracellular domain linked to human IgG1 Fc and terminating in human IgA1 tailpiece (αtp) | –

Row | Substance | binding to immobilized CD28-Ig (CD28-Ig [2]) | interaction with CD28-Ig in solution by calorimetry (CD28-Ig [3]) | saturation of OD405 (CD28-Ig [2]; biotinylated CD80-Igαtp at 50 μg/ml) | ratio of Igαtp to Ig titration equivalence points (molar ratio) (CTLA4-Ig) | Kd (CD28-Ig [1]) [nM]
3 | CD80-Ig: CD80 leader and extracellular domain grafted onto human IgG1 heavy chain Fc region; monomeric Ig fusion (Ig homodimer) [reference compound] | little binding and only at much higher concentrations | not detected | – | – | ~200
